{"source": "paper doi:10.1101/2024.05.12.593783", "key": {"[1]": {"target": "FITC-pCLMBWT peptide (residues 21-50, pThr44) (UniProt Q96GX8)", "assay": "fluorescence polarisation"}, "[2]": {"target": "FITC-CLMBWT peptide (residues 21-50), not phosphorylated (UniProt Q96GX8)", "assay": "fluorescence polarisation"}}}
{"substance": "purified, catalytically inactive CNA/B containing CNA_(Trunc+H151Q) (from UniProt Q08209 1-391; P63098 1-170) (complex)", "values": [{"measurement": "Kd", "setting": "[1]", "value": 14.1, "unit": "nM"}, {"measurement": "Kd", "setting": "[2]", "value": 291, "unit": "nM"}]}
